Source: US20080286264A1 (Dana-Farber, published 2008)

Molecular target: p53(293-393) (human, UniProt P04637 293-393)
Experiment: co-IP with anti-p53 from transfected U2OS cells, immunoblot with anti-MUC1 C-ter

Sequence of p53(293-393) (P04637 293-393): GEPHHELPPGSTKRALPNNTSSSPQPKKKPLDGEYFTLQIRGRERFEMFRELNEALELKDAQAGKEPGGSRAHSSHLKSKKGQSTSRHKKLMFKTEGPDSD

binding result: binds
B1: Myc-MUC1-CD(1-72) (other)
chain: CQCRRKNYGQLDIFPARDTYHPMSEYPTYHTHGRYVPPSSTDRSPYEKVSAGNGGSSLSYTNPAVAATSANL
notes: Transiently expressed in U2OS cells; not shown: Myc tag
